The record followed here is the RNAGym collection of RNA variant scans (doi:10.1021/acssynbio.7b00057).

B1: Pistol ribozyme (parent)
chain: GGGUCGUUGUUCCAUAAUCGCGUGGAUAUGGCACGCAAGUUUCUACCGGGCACCGUAAAUGUCCGACUGGAGCCGUUCGGGCGGCUAUAAACAGACCUCAGGCCCGAAGCGUGGCGGCACCUGCCGCCGGUGGUAAAAAAGAUCGGAAGAGCACACGUCU

The variants in the data set derive from B1. Kind of data set: aptazyme ON/OFF ratio, guanine; higher = stronger switching; co-transcriptional cleavage with and without guanine.
Take U7A G9A U11A C12A C13A: the “aptazyme ON/OFF ratio” value amounted to 1.22.
To U7C U8G G9U U10G U11C C13G belongs 1.14; to U7C U8A G9A U11A, 1.17.
Turning to U7G U8C G9U U10C, the “aptazyme ON/OFF ratio” value was determined as 1.64.
To U7G U8G G9U U10C C13G belongs 1.31.
On to U7C U8C U10A U11C, for which the “aptazyme ON/OFF ratio” value stood at 1.03.
To U7C U8G U10A U11G C12A belongs 1.11.
For the variant U7G U8A U11A C12U C13A, the “aptazyme ON/OFF ratio” value came out at 1.31.
To U7A U8A G9C U10C C12G belongs 1.04; to U7G U8A G9A U11A C12U C13G, 1.04; to U7A U8C G9U U10C U11A C12G, 1.13.
To U7G U8G G9A U10C C12A C13A belongs 1.13; to U7A U8A C12U C13U, 1.38.
To U8A G9A U10A U11A C12A C13G belongs 1.1; to U7C U8C G9U U10C U11G C12U C13U, 1.21; to U7C G9C U10G U11C C12G C13U, 1.12.
Take U7G U8C G9U U11A C13A: the “aptazyme ON/OFF ratio” value is 1.22.
As to U7G U8G G9C U10G U11G C12U, the “aptazyme ON/OFF ratio” value was determined as 1.19.
Consider U7A U8G G9A, for which the “aptazyme ON/OFF ratio” value is 3.13.
U7A U8C U10G U11C C13A: the “aptazyme ON/OFF ratio” value amounted to 1.18.
To U7G G9A U10A U11G C12U belongs 1.24; to U7G U8A G9U U10A U11C C12G C13U, 1.05; to U7A U8A G9A U10G U11G C12G C13G, 1.55.
To U7A U8A G9C U11A C12A belongs 1.22; to U7G U8C U10A U11C C12U C13A, 1.13; to U7A U8A G9U U10G U11A, 1.03.
To U7C U8C G9C U10C U11G C13G belongs 1.19; to U7A U8A G9U U11A C12U C13G, 1.23; to U7G U8C G9A U10A U11A C13G, 1.04.
For the variant G9A U10G U11A C12A C13G, the “aptazyme ON/OFF ratio” value is 1.09.
To U7C U8C G9C U10C U11C C12U C13A belongs 1.08; to U7A U8G G9U U10G U11C C12A, 1.19; to U7A U8G G9U U10G U11C C12A C13U, 1.16.
To U7C G9U U10C U11C C12U C13U belongs 1.05; to U7A U8G G9U U10G C12A C13G, 1.14; to U8G U10A U11A, 1.71.
Regarding U7G U8A G9U U10C U11C C12A C13G, the “aptazyme ON/OFF ratio” value was 1.23.
U8A G9U U11C C13A: the “aptazyme ON/OFF ratio” value came to 1.04.
To U7A G9U U10A U11A C13U belongs 1.16; to U7C U8C U10C U11C C12A C13A, 1.34; to U7C G9C C12G C13U, 1.05.
With U7G U10G U11G C12G, the “aptazyme ON/OFF ratio” value was determined as 1.15.
Turning to U7G U8C G9C U10G C12A C13A, the “aptazyme ON/OFF ratio” value stood at 1.1.
To U8C G9C U10A U11C C12U C13G belongs 1.17; to U7G U8G G9U U10C U11C C13A, 1.28; to U8A G9C U11G C12G, 1.16.
To U7G U8G G9A U10A U11G C12U C13G belongs 1.12; to G9C U10G C12G, 1.19.
To U7C U8G G9A U10A C12G C13G belongs 1.46; to U7C G9A C13G, 1.03.
Take U8G U10A U11A C12A C13A: the “aptazyme ON/OFF ratio” value turned out to be 1.19.
To U7C U8C G9A U10G U11A belongs 1.16; to U8C G9C U10C U11A C12G, 1.01; to U7G G9A C12A C13A, 1.09.
For U7C U8G U10G C13A, the “aptazyme ON/OFF ratio” value is 1.4.
To U8A G9A U10C U11G C12G C13A belongs 1.28; to U7G U8C G9U U10A U11C C12A C13G, 1.33; to U7C U8A G9C U10G U11G C12G C13A, 1.11.
G9C U10G C12U C13U: the “aptazyme ON/OFF ratio” value is 1.22.
G9U U10C U11A C12G C13U: the “aptazyme ON/OFF ratio” value is 1.27.
To U7A G9U U10G U11C C12U belongs 1.06; to U7C U8C G9A U10C U11G C13A, 1.11.
Consider U8G G9U U10A C12U C13A, for which the “aptazyme ON/OFF ratio” value is 1.2.
To U7G U10C U11G C12A belongs 1.12; to U7C U8A U10A C12A C13A, 1.17; to U7A U10G U11G C12A, 1.29.
On to U7G G9U U10C C12U C13U, for which the “aptazyme ON/OFF ratio” value was found to be 1.34.
As to U7A U8G U10G U11A C12U C13U, the “aptazyme ON/OFF ratio” value turned out to be 1.15.
To U8A G9A U10A U11C C12G C13A belongs 1.16; to U7A U10G U11G C12A C13U, 1.22; to U7G U8C G9C U11A C12U C13A, 1.09.
As to U7G U8C G9A U10C U11A C12U, the “aptazyme ON/OFF ratio” value was found to be 1.18.
Regarding U7C U8A C12A C13G, the “aptazyme ON/OFF ratio” value worked out at 1.09.
Turning to U7A U8A G9U U10A C12G, the “aptazyme ON/OFF ratio” value stood at 1.41.
Turning to G9C U10A C12A C13G, the “aptazyme ON/OFF ratio” value stood at 1.16.
To U8C G9U U10C C12A belongs 1.19; to U8G G9A U10C U11G C12A C13U, 1.16; to U8G G9A U10C, 2.29.
To U7C U8G G9U U10C U11C C13U belongs 1.03; to U8G G9U U11C C12U C13G, 1.08; to U8C U10C U11G C12A C13U, 1.33.
To U7G U8G G9A U10G U11C C12U belongs 1.27.
With U7C U8G G9A U10G U11C C13G, the “aptazyme ON/OFF ratio” value turned out to be 1.04.
